Article PMC7112233, “E2f5 is a versatile transcriptional activator required for spermatogenesis and multiciliated cell differentiation in zebrafish”

Molecular target: T1, E2f5 (zebrafish, UniProt A5WUE8 1-363)
T1 sequence: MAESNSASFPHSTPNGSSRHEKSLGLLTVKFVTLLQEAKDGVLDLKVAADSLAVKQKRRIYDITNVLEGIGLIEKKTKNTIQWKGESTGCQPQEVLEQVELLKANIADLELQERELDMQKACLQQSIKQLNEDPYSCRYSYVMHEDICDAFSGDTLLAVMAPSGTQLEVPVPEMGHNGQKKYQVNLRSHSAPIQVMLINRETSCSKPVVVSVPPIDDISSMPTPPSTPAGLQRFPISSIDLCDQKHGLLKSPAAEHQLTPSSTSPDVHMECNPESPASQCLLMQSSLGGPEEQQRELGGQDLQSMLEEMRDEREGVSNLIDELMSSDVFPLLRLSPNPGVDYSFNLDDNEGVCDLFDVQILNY
Assay: EMSA; 10 mM Tris-HCl pH 8.0, 50 mM NaCl, 1 mM MgCl2, 0.5 mM EDTA, 0.5 mM DTT, 4% glycerol; 3 ug protein, 1 ul annealed oligo (25 uM stock); 40 min room temperature; 6.5% native PAGE
Conditions: protein: recombinant; tags: His (pET30A, Ni-NTA purified); label: 5'-FAM; annealed with complementary oligonucleotide

Binder | binding result
dmc1 E2F site mutant probe (dsDNA) DNA 1: TGTCAACATACGATTGTAAATTTAAATTTCTTTCAGC DNA 2: GCTGAAAGAAATTTAAATTTACAATCGTATGTTGACA | no binding
dmc1 E2F site wild-type probe (dsDNA) DNA 1: TGTCAACATACGATTGTGGCGCGAAATTTCTTTCAGC DNA 2: GCTGAAAGAAATTTCGCGCCACAATCGTATGTTGACA | binds
